Test results published in US20120039802A1 (published 2012).

Columns and labels:
[1] = target: T1, cMet-Fc fusion protein (extracellular domain of the cMet receptor expressed as an Fc-fusion protein) (human, UniProt P08581 25-932); test: phage ELISA on cMet-Fc, competitor HGF 100 ng/mL
T1 construct: extracellular domain; also called soluble cMet-Fc-fusion protein; soluble cMet receptor; not shown: Fc part
Procedure, shortened: (§1)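 Plates coated with 0.5 μg/mL cMet-Fc, with TRAIL-Fc as background, then blocked with 3% BSA. Bound phage detected with HRP anti-M13 antibody.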

[2] = target: T1, cMet-Fc fusion protein (extracellular …); test: phage ELISA on cMet-Fc, competitor HGF 500 ng/mL
Procedure, shortened: as §1

[3] = target: T2, human cMet expressed on 3T3 cells (human, UniProt P08581 25-1390); test: whole cell phage ELISA, 3T3 human cMet vs 3T3
T2 construct: whole, on cells; cells fixed with glutaraldehyde; also called cell surface-expressed human cMet; 3T3 cells that over-express human cMet
Procedure, shortened: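 3T3 cells over-expressing human cMet, compared against parental 3T3, seeded at 10⁵ per well and fixed with 0.1% glutaraldehyde for 12 min at 37 C. Blocked peptide-displaying phage bound for 1 h at room temperature. After PBST washes, bound phage was detected with HRP-conjugated anti-M13 antibody.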

[4] = target: T1, cMet-Fc fusion protein (extracellular …); test: phage ELISA, cMet-Fc vs TRAIL-Fc
Procedure, shortened: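 Plates coated overnight at 4 C with 0.5 μg/mL cMet-Fc, or TRAIL-Fc as background, were blocked with 3% BSA in PBST. Peptide-displaying phage were bound 2 h at room temperature. Bound phage were detected with HRP-conjugated anti-M13 antibody.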

T2 sequence (P08581 25-1390): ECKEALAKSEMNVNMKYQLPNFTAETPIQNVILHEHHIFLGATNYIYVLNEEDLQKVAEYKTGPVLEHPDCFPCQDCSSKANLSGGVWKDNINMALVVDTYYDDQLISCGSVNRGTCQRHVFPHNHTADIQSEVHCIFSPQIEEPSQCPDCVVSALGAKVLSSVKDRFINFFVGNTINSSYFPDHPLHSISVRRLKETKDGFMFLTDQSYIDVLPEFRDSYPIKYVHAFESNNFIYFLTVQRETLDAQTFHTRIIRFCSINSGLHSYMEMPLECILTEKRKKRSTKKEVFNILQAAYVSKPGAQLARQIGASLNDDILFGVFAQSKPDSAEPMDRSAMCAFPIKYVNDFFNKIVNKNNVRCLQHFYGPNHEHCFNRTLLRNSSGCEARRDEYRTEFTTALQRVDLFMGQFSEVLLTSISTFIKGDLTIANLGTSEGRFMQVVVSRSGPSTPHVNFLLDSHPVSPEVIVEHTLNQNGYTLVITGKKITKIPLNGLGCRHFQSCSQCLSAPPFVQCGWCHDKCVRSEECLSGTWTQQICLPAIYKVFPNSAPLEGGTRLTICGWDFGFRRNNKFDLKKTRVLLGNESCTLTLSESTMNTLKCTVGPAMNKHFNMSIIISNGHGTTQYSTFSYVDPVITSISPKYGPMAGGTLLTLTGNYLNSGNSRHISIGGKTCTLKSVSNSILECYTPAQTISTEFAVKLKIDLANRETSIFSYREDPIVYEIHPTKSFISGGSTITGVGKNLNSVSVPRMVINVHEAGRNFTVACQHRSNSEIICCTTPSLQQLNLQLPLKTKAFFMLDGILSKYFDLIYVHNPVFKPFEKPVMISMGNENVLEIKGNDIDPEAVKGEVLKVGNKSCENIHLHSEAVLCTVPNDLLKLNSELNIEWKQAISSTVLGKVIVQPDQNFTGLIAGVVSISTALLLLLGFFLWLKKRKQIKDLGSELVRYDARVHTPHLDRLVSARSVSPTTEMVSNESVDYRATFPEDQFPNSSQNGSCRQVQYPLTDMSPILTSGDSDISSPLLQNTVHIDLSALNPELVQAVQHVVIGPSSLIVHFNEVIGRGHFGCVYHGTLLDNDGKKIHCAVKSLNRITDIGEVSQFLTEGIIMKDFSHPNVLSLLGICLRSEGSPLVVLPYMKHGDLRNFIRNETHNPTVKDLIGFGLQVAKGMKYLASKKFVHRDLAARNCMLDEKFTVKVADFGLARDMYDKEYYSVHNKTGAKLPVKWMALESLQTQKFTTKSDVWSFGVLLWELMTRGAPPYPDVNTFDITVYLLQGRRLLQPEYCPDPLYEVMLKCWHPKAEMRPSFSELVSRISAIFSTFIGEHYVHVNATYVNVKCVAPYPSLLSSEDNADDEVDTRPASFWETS
T1 sequence (P08581 25-932): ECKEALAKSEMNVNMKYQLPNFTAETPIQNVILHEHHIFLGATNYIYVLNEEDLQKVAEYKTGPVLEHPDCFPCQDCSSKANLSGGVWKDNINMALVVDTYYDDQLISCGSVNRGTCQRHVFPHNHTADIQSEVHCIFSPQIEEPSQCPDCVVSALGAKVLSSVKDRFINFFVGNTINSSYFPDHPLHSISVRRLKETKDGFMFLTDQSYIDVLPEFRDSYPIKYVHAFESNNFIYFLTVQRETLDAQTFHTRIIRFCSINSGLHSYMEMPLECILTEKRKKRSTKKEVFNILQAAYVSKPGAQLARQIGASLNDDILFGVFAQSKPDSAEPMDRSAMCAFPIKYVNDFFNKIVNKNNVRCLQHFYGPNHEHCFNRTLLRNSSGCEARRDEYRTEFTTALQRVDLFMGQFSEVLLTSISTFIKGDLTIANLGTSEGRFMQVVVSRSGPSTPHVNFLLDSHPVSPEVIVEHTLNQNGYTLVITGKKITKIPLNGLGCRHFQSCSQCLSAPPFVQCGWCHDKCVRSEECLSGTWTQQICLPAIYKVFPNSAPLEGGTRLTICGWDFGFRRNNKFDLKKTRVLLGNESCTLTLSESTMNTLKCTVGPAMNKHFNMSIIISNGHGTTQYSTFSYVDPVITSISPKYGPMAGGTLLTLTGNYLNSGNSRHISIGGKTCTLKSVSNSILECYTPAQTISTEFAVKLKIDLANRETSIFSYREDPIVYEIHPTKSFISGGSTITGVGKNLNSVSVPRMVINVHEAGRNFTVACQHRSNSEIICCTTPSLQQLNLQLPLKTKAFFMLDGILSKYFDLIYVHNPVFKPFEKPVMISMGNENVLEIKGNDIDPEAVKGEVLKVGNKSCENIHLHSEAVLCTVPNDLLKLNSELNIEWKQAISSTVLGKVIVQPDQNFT

Binder	% of binding in the absence of HGF [1]	% of binding in the absence of HGF [2]	WC ELISA (fold over background) [3]	Protein ELISA (fold over background) [4]
AQHQYGQMMVLHIQYDMGEFIP [117-F08 peptide-displaying phage (SEQ ID NO: 462)]	102%	270%	1.27 fold	4.5 fold
GDYSECFFEPDSFEVKCYDRDP [545-H12 peptide-displaying phage (SEQ ID NO: 399)]	74%	60%	1.3 fold	11.3 fold
AQNAVVPPPMLWSIYWDYGREG [94-H04 peptide-displaying phage (SEQ ID NO: 457)]	150%	101%	1.37 fold	7 fold
AQFPLEFDVPNFSYHWLVSFNP [118-C07 peptide-displaying phage (SEQ ID NO: 460)]	100%	84%	1.27 fold	5.6 fold
GDLLGCGYQEKGGEYKCRFNDP [334-F05 peptide-displaying phage (SEQ ID NO: 395)]	58%	29%	1.4 fold	13.5 fold
AQVGSPMLPSWFSFEANWSS [95-A11 peptide-displaying phage (SEQ ID NO: 456)]	109%	108%	1.3 fold	7 fold
AQPYYELQDADMLLVVALLSTG [94-F07 peptide-displaying phage (SEQ ID NO: 458)]	106%	104%	1.2 fold	6.1 fold
GDASMCYDGLALRWDQCWPHDP [531-E11 peptide-displaying phage (SEQ ID NO: 404)]	61%	33%	1.3 fold	3.4 fold
GDPDECQLNRETFEVWCPWHDP [547-C09 peptide-displaying phage (SEQ ID NO: 401)]	50%	32%	1.23 fold	4.3 fold
AQYDTWVFQFIHEVPGELVAMQ (also called linear isolate 94-E08) [94-E08 peptide-displaying phage (SEQ ID NO: 454)]	102%	74%	1.23 fold	8.9 fold
AQREVEEPYWYLDFLSSWRMHE [524-E09 peptide-displaying phage (SEQ ID NO: 451)]	100%	93%	1.33 fold	8.2 fold
AQMYQTPDGVIGKFVDWMFN [119-F06 peptide-displaying phage (SEQ ID NO: 455)]	4%	27%	1.33 fold	8 fold
AQRWSSPGMSQSFVLEWKWNDN [118-A08 peptide-displaying phage (SEQ ID NO: 453)]	85%	74%	1.3 fold	11.3 fold
AGDGWCMAWPEICEWLGT [434-E12 peptide-displaying phage (SEQ ID NO: 014)]	117%	41%	1.33 fold	4.8 fold
AQRPEAHYKLAMSYPIIPRTKT [96-H12 peptide-displaying phage (SEQ ID NO: 452)]	88%	64%	1.37 fold	35.3 fold
AQQASRFTFTDGDSYWWFEDF [525-A07 peptide-displaying phage (SEQ ID NO: 449)]	93%	88%	1.17 fold	7 fold
AQVGTAEAIMFSDVEDTGVHKF [103-G08 peptide-displaying phage (SEQ ID NO: 459)]	140%	95%	1.33 fold	5.7 fold
GDYYQCQFSKDMYSERCWPYDP [316-F08 peptide-displaying phage (SEQ ID NO: 397)]	72%	38%	1.3 fold	7 fold
AQDLKPWTAGWEPPWLWTDRGP [104-C09 peptide-displaying phage (SEQ ID NO: 461)]	64%	50%	1.3 fold	5 fold
GDHLTCEFRDDGWKEHCWWSDP [552-F06 peptide-displaying phage (SEQ ID NO: 403)]	82%	32%	1.23 fold	11.1 fold
GDHRKCEISAKTHEVTCYDNDP [545-F04 peptide-displaying phage (SEQ ID NO: 402)]	143%	114%	1.17 fold	5.2 fold
AGLYLCDLSIMYCFFQGT [489-A04 peptide-displaying phage (SEQ ID NO: 015)]	30%	13%	1.33 fold	4.3 fold
GDPWWCFEKDSFIPFACWHHDP [330-G02 peptide-displaying phage (SEQ ID NO: 396)]	37%	31%	1.3 fold	7.4 fold
AQIQGIQKTEQGEFYWFNWFPA [528-F05 peptide-displaying phage (SEQ ID NO: 450)]	84%	81%	1.1 fold	4.3 fold
GSYYDCREFQCNKPAP [465-A06 peptide-displaying phage (SEQ ID NO: 002)]	56%	32%	1.33 fold	4.4 fold
GDNRFCSWVYNVDDWWCVDNDP [332-H09 peptide-displaying phage (SEQ ID NO: 398)]	50%	43%	1.3 fold	6.2 fold
GDYRMCQISDMWGNYECSSDDP [548-G05 peptide-displaying phage (SEQ ID NO: 400)]	110%	47%	1.3 fold	6.1 fold
